Test results reported in article PMC11539920 (Nature, 2024).
Where two headings read alike, the source gives them in different places. One block for each binder: values may come before it.

Tests used:
BRCA1–BARD1 complex [1] = molecular target: T1, BRCA1–BARD1 complex (human, UniProt P38398 1-1863; Q99728 1-777); experiment: pull-down
BRCA1–BARD1 complex [2] = molecular target: T1, BRCA1–BARD1 complex; experiment: pull-down; remark: listed apart in the source
[3] = molecular target: BRCA1 (subunit of the purified BRCA1–BARD1 complex) (human, UniProt P38398 1-1863); experiment: mass photometry
BRCA1 (subunit of the purified BRCA1–BARD1 complex), sequence (P38398 whole entry, one chain of several): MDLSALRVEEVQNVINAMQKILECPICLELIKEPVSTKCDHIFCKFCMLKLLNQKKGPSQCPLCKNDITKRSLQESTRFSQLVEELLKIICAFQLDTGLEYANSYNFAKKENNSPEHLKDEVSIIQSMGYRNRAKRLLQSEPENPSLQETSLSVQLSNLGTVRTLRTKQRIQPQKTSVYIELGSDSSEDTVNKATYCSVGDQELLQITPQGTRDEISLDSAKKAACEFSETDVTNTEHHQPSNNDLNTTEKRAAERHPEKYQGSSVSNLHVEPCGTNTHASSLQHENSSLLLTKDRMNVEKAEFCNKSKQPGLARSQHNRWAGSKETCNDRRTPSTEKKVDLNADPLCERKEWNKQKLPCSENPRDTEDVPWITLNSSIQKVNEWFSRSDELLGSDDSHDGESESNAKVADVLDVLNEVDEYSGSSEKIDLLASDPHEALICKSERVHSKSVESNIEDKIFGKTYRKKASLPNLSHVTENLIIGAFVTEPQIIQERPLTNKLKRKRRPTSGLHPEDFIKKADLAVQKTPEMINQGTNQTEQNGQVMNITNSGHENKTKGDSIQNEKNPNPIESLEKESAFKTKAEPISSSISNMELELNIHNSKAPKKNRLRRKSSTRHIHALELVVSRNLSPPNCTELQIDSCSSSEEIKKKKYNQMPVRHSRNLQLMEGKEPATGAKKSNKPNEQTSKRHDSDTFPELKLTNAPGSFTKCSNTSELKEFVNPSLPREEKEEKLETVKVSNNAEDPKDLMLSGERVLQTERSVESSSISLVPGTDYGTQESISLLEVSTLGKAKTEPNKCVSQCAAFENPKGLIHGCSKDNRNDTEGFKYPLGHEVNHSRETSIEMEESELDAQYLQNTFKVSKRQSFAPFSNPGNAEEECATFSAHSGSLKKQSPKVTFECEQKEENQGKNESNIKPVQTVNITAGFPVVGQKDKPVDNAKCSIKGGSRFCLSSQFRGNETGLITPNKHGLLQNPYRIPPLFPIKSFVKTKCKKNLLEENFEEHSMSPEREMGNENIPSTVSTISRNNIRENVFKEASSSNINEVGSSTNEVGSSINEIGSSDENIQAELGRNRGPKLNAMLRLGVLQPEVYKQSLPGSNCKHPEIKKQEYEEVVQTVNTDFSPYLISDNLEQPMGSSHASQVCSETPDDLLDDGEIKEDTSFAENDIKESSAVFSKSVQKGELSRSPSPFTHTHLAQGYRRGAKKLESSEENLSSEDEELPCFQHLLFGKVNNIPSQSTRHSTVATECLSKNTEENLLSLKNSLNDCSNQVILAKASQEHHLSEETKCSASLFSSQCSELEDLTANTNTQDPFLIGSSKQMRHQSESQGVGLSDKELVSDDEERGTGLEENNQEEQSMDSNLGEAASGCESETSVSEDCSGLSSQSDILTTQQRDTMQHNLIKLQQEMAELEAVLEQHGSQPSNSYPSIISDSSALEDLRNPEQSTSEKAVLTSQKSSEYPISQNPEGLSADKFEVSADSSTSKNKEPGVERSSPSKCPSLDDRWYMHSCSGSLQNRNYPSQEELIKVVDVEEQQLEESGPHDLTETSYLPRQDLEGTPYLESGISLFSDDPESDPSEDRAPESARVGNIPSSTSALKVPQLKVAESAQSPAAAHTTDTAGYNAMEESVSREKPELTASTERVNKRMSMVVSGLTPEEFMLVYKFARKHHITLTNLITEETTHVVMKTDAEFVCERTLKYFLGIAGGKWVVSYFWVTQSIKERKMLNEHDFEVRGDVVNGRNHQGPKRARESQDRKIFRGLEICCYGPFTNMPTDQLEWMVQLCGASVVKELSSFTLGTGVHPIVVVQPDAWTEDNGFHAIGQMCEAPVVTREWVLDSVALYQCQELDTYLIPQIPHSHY

T1 sequence (P38398 whole entry, one chain of several): as above

B3: BARD1 (subunit of the purified BRCA1–BARD1 complex) (natural protein, human, UniProt Q99728 1-777, looked up)
chain: MPDNRQPRNRQPRIRSGNEPRSAPAMEPDGRGAWAHSRAALDRLEKLLRCSRCTNILREPVCLGGCEHIFCSNCVSDCIGTGCPVCYTPAWIQDLKINRQLDSMIQLCSKLRNLLHDNELSDLKEDKPRKSLFNDAGNKKNSIKMWFSPRSKKVRYVVSKASVQTQPAIKKDASAQQDSYEFVSPSPPADVSERAKKASARSGKKQKKKTLAEINQKWNLEAEKEDGEFDSKEESKQKLVSFCSQPSVISSPQINGEIDLLASGSLTESECFGSLTEVSLPLAEQIESPDTKSRNEVVTPEKVCKNYLTSKKSLPLENNGKRGHHNRLSSPISKRCRTSILSTSGDFVKQTVPSENIPLPECSSPPSCKRKVGGTSGRKNSNMSDEFISLSPGTPPSTLSSSSYRRVMSSPSAMKLLPNMAVKRNHRGETLLHIASIKGDIPSVEYLLQNGSDPNVKDHAGWTPLHEACNHGHLKVVELLLQHKALVNTTGYQNDSPLHDAAKNGHVDIVKLLLSYGASRNAVNIFGLRPVDYTDDESMKSLLLLPEKNESSSASHCSVMNTGQRRDGPLVLIGSGLSSEQQKMLSELAVILKAKKYTEFDSTVTHVVVPGDAVQSTLKCMLGILNGCWILKFEWVKACLRRKVCEQEEKYEIPEGPRRSRLNREQLLPKLFDGCYFYLWGTFKHHPKDNLIKLVTAGGGQILSRKPKPDSDVTQTINTVAYHARPDSDQRFCTQYIIYEDLCNYHPERVRQGKVWKAPSSWFIDCVMSFELLPLDS
stoichiometry N [3]: 1

B4: GST-tagged BLM fragment, residues 636–857 (domain or fragment)
chain: not shown
binding result (BRCA1–BARD1 complex [1]): binds

B5: GST-tagged BLM fragment, residues 2–635 (domain or fragment, human, UniProt P54132 2-635, looked up)
chain: AAVPQNNLQEQLERHSARTLNNKLSLSKPKFSGFTFKKKTSSDNNVSVTNVSVAKTPVLRNKDVNVTEDFSFSEPLPNTTNQQRVKDFFKNAPAGQETQRGGSKSLLPDFLQTPKEVVCTTQNTPTVKKSRDTALKKLEFSSSPDSLSTINDWDDMDDFDTSETSKSFVTPPQSHFVRVSTAQKSKKGKRNFFKAQLYTTNTVKTDLPPPSSESEQIDLTEEQKDDSEWLSSDVICIDDGPIAEVHINEDAQESDSLKTHLEDERDNSEKKKNLEEAELHSTEKVPCIEFDDDDYDTDFVPPSPEEIISASSSSSKCLSTLKDLDTSDRKEDVLSTSKDLLSKPEKMSMQELNPETSTDCDARQISLQQQLIHVMEHICKLIDTIPDDKLKLLDCGNELLQQRNIRRKLLTEVDFNKSDASLLGSLWRYRPDSLDGPMEGDSCPTGNSMKELNFSHLPSNSVSPGDCLLTTTLGKTGFSATRKNLFERPLFNTHLQKSFVSSNWAETPRLGKKNESSYFPGNVLTSTAVKDQNKHTASINDLERETQPSYDIDNFDIDDFDDDDDWEDIMHNLAASKSSTAAYQPIKEGRPIKSVSERLSSAKTDCLPVSSTAQNINFSESIQNYTDKSAQNLA
binding result (BRCA1–BARD1 complex [1]): binds

Second part, the binder after the results:

binding result (BRCA1–BARD1 complex [1]): binds
B1: GST-tagged BLM fragment, residues 636–1298 (domain or fragment)
chain: not shown

binding result (BRCA1–BARD1 complex [2]): binds
B2: GFP-WRN (enzyme)
chain: not shown
